The results in this text go back to article PMC11341838 (Nature Communications, 2024).

The target of this experiment is T1, Pf3D7 recombinant AMA1, full ectodomain (domain I, II and III) (P. falciparum (strain 3D7)).
T1 chain: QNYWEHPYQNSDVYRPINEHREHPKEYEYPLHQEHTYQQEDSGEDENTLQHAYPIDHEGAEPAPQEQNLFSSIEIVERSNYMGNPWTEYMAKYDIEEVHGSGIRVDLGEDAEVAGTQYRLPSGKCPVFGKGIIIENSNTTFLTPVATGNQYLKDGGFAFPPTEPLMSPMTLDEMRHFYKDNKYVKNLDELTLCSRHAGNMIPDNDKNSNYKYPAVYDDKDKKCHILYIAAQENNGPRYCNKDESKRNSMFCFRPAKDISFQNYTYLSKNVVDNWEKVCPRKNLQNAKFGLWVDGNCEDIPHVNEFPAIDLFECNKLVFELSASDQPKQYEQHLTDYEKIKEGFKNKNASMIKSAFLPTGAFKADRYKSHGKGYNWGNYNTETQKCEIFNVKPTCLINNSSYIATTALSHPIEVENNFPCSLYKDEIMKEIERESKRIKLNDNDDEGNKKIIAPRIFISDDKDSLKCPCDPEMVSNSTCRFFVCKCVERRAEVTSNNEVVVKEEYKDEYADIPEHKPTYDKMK
Description: ELISA.

B1: mAb 1F9 (antibody, V domains shown)
VH: EVQLQQSGAELLKPGASVKLSCIVSGFKIKDTSMHWVKQRPEQGLEWIGRIDPANDNSEYDPKFQGKATITADTSSNTAYLQLSSLTSEDTAVYYCTLSHFWGQGTTLTVSS
VL: SIVMTQTPKFLPVSAGDRVTIICKASQSVSNDVVWYQQKPGQSPKLLIYYASIRYTGVPDRFTGSGYGTDFTFTISTVQVEDLAVYFCQQGFSSPRTFGGGTKLEIN
Regarding B1, the binding result is on record as “binds”.
